According to article PMC11952670:

Legend:
[1] = target: C-terminal domain of F-BclA (F-BclA-CTD) (Bacillus thuringiensis subsp. kurstaki); assay: crystal structure; F-BclA-CTD; 1M LiCl, 0.1M citrate pH 4.0, 20% (w/v) PEG 6000; P321
[2] = target: ExsF, first 23 residues replaced by a 6xHis tag (B. paranthracis); assay: crystal structure; co-crystallisation of 6xHis-ExsF with the synthetic F-Anchor peptide; 5% v/v T-mate pH 7, 0.1 M sodium cacodylate pH 5.3, 15% v/v PEG smear broad, 10% v/v ethylene glycol; 1.92 Å, P21

| Substance | stoichiometry N [1] | stoichiometry N [2] |
| --- | --- | --- |
| C-terminal domain of F-BclA (F-BclA-CTD) (domain or fragment) | 3 | – |
| ExsF, first 23 residues replaced by a 6xHis tag (domain or fragment) | – | 3 |
